Test results published in publication PMC7667886, “Who with whom: functional coordination of E2 enzymes by RING E3 ligases during poly‐ubiquitylation” (The EMBO Journal, 2020).

Key:
Ubc7(wt) = molecular target: T1, Ubc7(wt) (yeast, UniProt Q02159 1-165); assay: SEC; purified Ubc7 and U7BR mixed in a 1:2 ratio, complex purified on Superdex 75; settings: both partners purified
T1 construct: Ubc7, yeast ERAD E2 enzyme, wild type
T1 sequence (looked up): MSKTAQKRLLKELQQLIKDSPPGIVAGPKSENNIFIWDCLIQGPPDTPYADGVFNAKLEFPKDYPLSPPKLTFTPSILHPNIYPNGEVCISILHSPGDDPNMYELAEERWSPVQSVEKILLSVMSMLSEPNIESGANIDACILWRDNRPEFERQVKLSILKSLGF

[1] = molecular target: T2, Ubc7 containing only the catalytic cysteine (C89only = C39A/C141S) (yeast, UniProt Q02159 1-165, C39A | C141S); assay: as above; settings: both partners purified
T2 construct: Ubc7, yeast ERAD E2 enzyme, single-cysteine variant C39A/C141S; also called Ubc7(C89only)
T2 sequence (looked up): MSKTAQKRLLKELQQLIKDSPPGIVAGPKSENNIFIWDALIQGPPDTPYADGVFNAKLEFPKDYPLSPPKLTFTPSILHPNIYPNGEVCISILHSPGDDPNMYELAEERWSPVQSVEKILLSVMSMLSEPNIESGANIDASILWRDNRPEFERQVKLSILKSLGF

binding result (Ubc7(wt)): binds
binding result [1]: binds
B1: U7BR domain of Cue1 (aa 150–203) (domain or fragment, yeast, UniProt P38428 150-203, looked up)
chain: NLLDKFHVDLNEDMSNLSFKDLDIEERKRLLVWQARKNLETKLQSDKDLQSLLT
notes: Treated on Ni-NTA with thrombin and GST-hSENP1, then washed and eluted with imidazole; source: E. coli BL21/DE3, purified (Ni-NTA, incubation with thrombin and GST-hSENP1, imidazole elution, Superdex 75)
